{"source": "patent US7629323B2", "about": "“Manipulation of neuronal ion channels” (Northwestern University, priority 2003, dated 2009)", "molecular_target": "T1, Kv3.4a/Kv3.1b heteromeric channels (Rattus norvegicus, UniProt P25122+Q63734)", "T1 construct": "expressed in transfected cells; host or cells: HEK293", "T1 sequence (Q63734 1-625)": "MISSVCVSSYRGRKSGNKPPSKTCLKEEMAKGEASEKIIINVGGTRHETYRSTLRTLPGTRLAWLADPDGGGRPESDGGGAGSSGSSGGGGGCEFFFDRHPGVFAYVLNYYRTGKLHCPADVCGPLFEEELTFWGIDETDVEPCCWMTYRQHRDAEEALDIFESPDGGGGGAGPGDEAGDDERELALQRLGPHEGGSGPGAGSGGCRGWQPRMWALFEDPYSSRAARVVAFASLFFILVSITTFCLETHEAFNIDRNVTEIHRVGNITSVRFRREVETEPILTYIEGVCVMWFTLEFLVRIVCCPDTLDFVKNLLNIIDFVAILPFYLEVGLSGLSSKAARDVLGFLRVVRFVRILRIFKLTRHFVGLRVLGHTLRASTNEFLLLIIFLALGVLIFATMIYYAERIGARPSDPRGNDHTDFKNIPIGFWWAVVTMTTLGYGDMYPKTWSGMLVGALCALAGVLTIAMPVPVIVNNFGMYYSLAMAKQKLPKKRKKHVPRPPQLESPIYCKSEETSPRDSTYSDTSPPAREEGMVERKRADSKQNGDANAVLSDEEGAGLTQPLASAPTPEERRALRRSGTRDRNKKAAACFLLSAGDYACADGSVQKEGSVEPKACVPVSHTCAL", "T1 sequence (P25122 1-585)": "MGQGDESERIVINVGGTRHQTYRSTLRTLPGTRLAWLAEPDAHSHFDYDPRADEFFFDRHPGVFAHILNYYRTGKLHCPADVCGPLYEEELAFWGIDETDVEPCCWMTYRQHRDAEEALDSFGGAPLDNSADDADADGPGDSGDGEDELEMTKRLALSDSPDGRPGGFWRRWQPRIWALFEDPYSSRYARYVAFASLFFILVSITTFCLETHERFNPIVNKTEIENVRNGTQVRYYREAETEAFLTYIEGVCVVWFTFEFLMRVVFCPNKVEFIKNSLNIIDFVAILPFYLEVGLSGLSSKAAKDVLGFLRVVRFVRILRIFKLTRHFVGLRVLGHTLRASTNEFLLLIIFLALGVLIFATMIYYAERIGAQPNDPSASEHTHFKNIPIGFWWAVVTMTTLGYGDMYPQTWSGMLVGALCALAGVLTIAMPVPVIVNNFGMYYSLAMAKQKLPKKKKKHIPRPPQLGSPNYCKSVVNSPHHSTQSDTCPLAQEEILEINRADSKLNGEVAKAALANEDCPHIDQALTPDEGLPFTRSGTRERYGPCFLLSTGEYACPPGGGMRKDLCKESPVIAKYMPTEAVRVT", "format": "cell-based", "conditions": "HEK293 cells, n=4", "description": "Electrophysiology. Whole-cell recordings used standard techniques^27,28. The internal solution consisted of (in mM): 30-90 K2SO4, 0-60 N-methyl-D-glucamine, 2 MgCl2, 40 HEPES, 5 EGTA, 12 phosphocreatine, 2 Na2ATP, 0.2 Na3GTP, and 0.1 leupeptin, pH 7.2 with H2SO4 (osmolarity 260-270 mOsm/l). The external solution consisted of (in mM): 140 Na-isethionate, 2 KCl, 4 MgCl2, 10 HEPES, 12 glucose and 0.001 TTX, pH 7.35 with NaOH (osmolarity 295-305 mOsm/l). The internal solution for current clamp recordings consisted of (in mM) 110 potassium methylsulphate, 2 MgCl2, 40 HEPES, 5 EGTA, 12 phosphocreatine, 2 Na2ATP, 0.2 Na3GTP, and 0.1 leupeptin, pH 7.2 with H2SO4 (osmolarity 260-270 mOsm/l). In the case of current clamp recordings, TTX was omitted from external solution. For the recordings in the presence of Ca^+2 ions EGTA was omitted from internal solution and 4 mM of MgCl2 was substituted by 2 mM of CaCl2 and 2 mM of MgCl2. […] Recordings were obtained with Axon Instruments 200 patch-clamp amplifier and controlled and monitored with a PC running pClamp software (version 7.0) (Axon Instruments Inc., Union City, Calif.). […] After seal rupture, series resistance (2-10 MΩ) was compensated (75-90%) and periodically monitored. […]\nSingle cell RT-PCR (scRT-PCR). […] In the case of co-transfection with Kv3.4a and Kv3.1b cDNA, single cell RT-PCR was used to confirm the presence of both mRNAs in the recorded cell. […]"}
{"substance": "BDS-I (AAPCFCSGKPGRGDLWILRGTCPGGYGYTSNCYKWPNICCYPH)", "values": [{"measurement": "block of Kv3.4a/Kv3.1b heteromeric channels", "result": "strong at the beginning of a depolarizing step and then waned with maintained depolarization"}]}
